In patent publication EP3048116A1 (International-Drug-Development-Biotech, dated 2016) one finds Kd data, which are given here for three molecules.

For this assay, the target named is T1, Purified human sDR5 (human, UniProt O14763 56-182, limits assumed).
T1 construct: Analyte in the Biacore assay; only called 'purified human sDR5'
Put plainly: SPR (Biacore), MAb captured on immobilised GAH, sDR5 injected at 40 nM to 2.5 nM. (In general: Surface plasmon resonance follows binding to a sensor surface in real time, without labels.)

B1: Hz033-Mut7 (antibody, human IgG1, kappa)
heavy: EVQLQQSGAEVVKPGASVKLSCKASGFNIKDTFIHWVKQAPGQGLEWIGRIDPANGNTKYDPKFQGKATITTDTSSNTAYMELSSLRSEDTAVYYCVRGLYTYYFDYWGQGTLVTVSSASTKGPSVFPLAPSSKSTSGGTAALGCLVKDYFPEPVTVSWNSGALTSGVHTFPAVLQSSGLYSLSSVVTVPSSSLGTQTYICNVNHKPSNTKVDKKVEPKSCDKTHTCPPCPAPELLGGPSVFLFPPKPKDTLMISRTPEVTCVVVDVSHEDPEVKFNWYVDGVEVHNAKTKPREEQYNSTYRVVSVLTVLHQDWLNGKEYKCKVSNAALPAPIAKTISKAKGQPREPQVYTLPPSRDELTKNQVSLTCLVKGFYPSDIAVEWESNGQPENNYKTTPLVLDSDGSFFLYSKLTVDKSRWQQGNVFSCSVMHEALHNHYTQKSLSLSPGK
light: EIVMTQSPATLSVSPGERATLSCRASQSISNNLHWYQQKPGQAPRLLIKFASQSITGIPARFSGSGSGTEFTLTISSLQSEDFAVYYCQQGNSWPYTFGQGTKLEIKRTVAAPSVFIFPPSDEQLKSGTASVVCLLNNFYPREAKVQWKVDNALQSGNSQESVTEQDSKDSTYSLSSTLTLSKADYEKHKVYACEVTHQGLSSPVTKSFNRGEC
notes: also called Hz033 Mut7 (K326A E333A P396L)
As usually defined, the Kd is the constant that tells how readily two partners part at equilibrium. Higher therefore signals lower affinity. B1 came in with a Kd of 0.426 nM.

B2: Hz033-Mut11 (antibody, human IgG1, kappa)
heavy: EVQLQQSGAEVVKPGASVKLSCKASGFNIKDTFIHWVKQAPGQGLEWIGRIDPANGNTKYDPKFQGKATITTDTSSNTAYMELSSLRSEDTAVYYCVRGLYTYYFDYWGQGTLVTVSSASTKGPSVFPLAPSSKSTSGGTAALGCLVKDYFPEPVTVSWNSGALTSGVHTFPAVLQSSGLYSLSSVVTVPSSSLGTQTYICNVNHKPSNTKVDKKVEPKSCDKTHTCPPCPAPELLGGPSVFLLPPKPKDTLMISRTPEVTCVVVDVSHEDPEVKFNWYVDGVEVHNAKTKPPEEQYNSTLRVVSLLTVLHQDWLNGKEYKCKVSNAALPAPIAKTISKAKGQPREPQVYTLPPSRDELTKNQVSLTCLVKGFYPSDIAVEWESNGQPENNYKTTPLVLDSDGSFFLYSKLTVDKSRWQQGNVFSCSVMHEALHNHYTQKSLSLSPGK
light: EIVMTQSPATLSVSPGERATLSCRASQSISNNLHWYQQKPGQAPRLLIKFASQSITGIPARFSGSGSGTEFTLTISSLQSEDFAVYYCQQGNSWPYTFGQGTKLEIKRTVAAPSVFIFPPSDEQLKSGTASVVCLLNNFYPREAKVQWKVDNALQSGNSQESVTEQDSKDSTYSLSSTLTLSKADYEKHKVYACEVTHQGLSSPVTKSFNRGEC
notes: also called Hz033 Mut11 (F243L R292P Y300L V305L K326A E333A P396L)
Take B2: binding was put at a Kd of 0.464 nM.

B3: Hz033-Mut8 (antibody, human IgG1, kappa)
heavy: EVQLQQSGAEVVKPGASVKLSCKASGFNIKDTFIHWVKQAPGQGLEWIGRIDPANGNTKYDPKFQGKATITTDTSSNTAYMELSSLRSEDTAVYYCVRGLYTYYFDYWGQGTLVTVSSASTKGPSVFPLAPSSKSTSGGTAALGCLVKDYFPEPVTVSWNSGALTSGVHTFPAVLQSSGLYSLSSVVTVPSSSLGTQTYICNVNHKPSNTKVDKKVEPKSCDKTHTCPPCPAPELLGGPSVFLFPPKPKDTLMISRTPEVTCVVVDVSHEDPEVKFNWYVDGVEVHNAKTKPREEQYNSTLRVVSVLTVLHQDWLNGKEYKCKVSNAALPAPIAKTISKAKGQPREPQVYTLPPSRDELTKNQVSLTCLVKGFYPSDIAVEWESNGQPENNYKTTPLVLDSDGSFFLYSKLTVDKSRWQQGNVFSCSVMHEALHNHYTQKSLSLSPGK
light: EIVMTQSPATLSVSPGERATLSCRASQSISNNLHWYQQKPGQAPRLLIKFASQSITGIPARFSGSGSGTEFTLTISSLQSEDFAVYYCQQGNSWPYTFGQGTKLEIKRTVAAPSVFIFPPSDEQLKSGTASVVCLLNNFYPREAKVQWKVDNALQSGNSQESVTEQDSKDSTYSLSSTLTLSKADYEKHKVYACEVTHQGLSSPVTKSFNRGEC
notes: also called Hz033 Mut8 (Y300L K326A E333A P396L)
The molecule B3 gave a Kd of 0.4 nM.
